Experimental findings from US20230331829A1 (KOREA ADVANCED INSTITUTE OF SCIENCE AND TECHNOLOGY, published 2023) are described below.

The target of this test is T1, PROX1 protein of mouse retinal tissue (mouse, UniProt P48437 1-737).
T1 construct: Endogenous protein
T1 sequence (looked up): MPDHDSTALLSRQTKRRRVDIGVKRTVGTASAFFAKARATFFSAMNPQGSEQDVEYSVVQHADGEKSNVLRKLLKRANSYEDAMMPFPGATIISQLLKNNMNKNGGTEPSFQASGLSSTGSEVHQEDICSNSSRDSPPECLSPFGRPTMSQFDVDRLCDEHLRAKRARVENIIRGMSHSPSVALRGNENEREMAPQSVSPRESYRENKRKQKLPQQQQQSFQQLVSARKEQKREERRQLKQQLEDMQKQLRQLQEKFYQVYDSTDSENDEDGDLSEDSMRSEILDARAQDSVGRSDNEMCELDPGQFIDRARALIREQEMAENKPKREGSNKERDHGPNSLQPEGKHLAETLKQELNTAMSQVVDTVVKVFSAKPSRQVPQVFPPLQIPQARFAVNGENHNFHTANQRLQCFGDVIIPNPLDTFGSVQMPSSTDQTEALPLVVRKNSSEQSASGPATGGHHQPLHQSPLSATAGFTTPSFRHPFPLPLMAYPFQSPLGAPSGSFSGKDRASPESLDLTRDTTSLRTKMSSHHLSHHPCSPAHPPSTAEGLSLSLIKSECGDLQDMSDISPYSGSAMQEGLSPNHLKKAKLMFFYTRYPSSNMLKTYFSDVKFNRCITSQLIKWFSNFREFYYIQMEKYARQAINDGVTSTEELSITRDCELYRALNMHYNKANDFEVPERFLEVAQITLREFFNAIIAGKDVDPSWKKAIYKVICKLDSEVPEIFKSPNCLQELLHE
Description: immunoprecipitation with Ni-NTA beads from mouse retinal tissue lysate, Western blot. The procedure:
Protein samples were prepared from mice cortex tissue not expressing PROX1 protein and mouse retinal tissue expressing PROX1 protein and PROX1 neutralizing single chain antibody (anti-PROX1-scFv-His) at 4° C. for 16 hours, followed by Ni-NTA beads for 4 hours. Thereafter, the Ni-NTA bead immune complex was washed five times with a washing buffer (50 mM imidazole and protease inhibitor) and a Western blot experiment was performed to confirm the binding ability of the single chain antibody to the PROX1 protein.
Thereafter, the Ni-NTA bead immune complex was washed 5 times with a washing buffer (50 mM imidazole and protease inhibitor) and a Western blot experiment was performed to confirm the binding ability of the PROX1 neutralizing single chain antibody to the PROX1 protein (see FIG. 1).
(In general: In western blotting, separated proteins are transferred to a membrane and probed.)

B1: anti-PROX1-single chain Fv-His (clone #1A11) (scFv, V domains shown)
VH: AVTLDESGGGLQTPGGGLSLVCKASGFTFSSYAMNWVRQAPGKGLEWVAAIDDDGSYTGYGSAVKGRATISRDNGQSTVRLQLNNLRAEDTAIYYCAKAAGSGYCYRGANSSYTCGTYNAGDIDAWGHGTEVIVSS
VL: LTQPSSVSANLGETVEITCSGGSGSYGWYQQKSPGSAPVTLIYDNANRPSNIPSRFSGSKSGSTGTLTITGVRAEDEAVYYCGNVDSSTYVGMFGAGTTLTVL
notes: One polypeptide (scFv from a chicken antibody phage display library) with a hexa-histidine tag; used as phage periplasmic supernatant; also called anti-PROX1-scFv-His; scFv-His
Take B1: the binding result is given as “binds”.
